{"source": "patent US20250073311A1", "about": "“DOSAGE REGIME” (ZEALAND PHARMA A/S, priority 2021, published 2025)", "binders": {"B1": {"name": "Compound 4 (peptide)", "peptide": "H-H[Aib]EGTFSSELATILDK([γGlu-C18 diacid])KAARDFIAWLIEHKITD-OH"}, "B2": {"name": "Compound 7 (peptide)", "peptide": "H-H[Aib]EGTFSSELATILDGK([γGlu-C18 diacid])AARDFIAWLIEHKITD-OH", "SMILES": "CC[C@H](C)[C@H](NC(=O)[C@H](Cc1ccccc1)NC(=O)[C@H](CC(=O)O)NC(=O)[C@H](CCCNC(=N)N)NC(=O)[C@H](C)NC(=O)[C@H](C)NC(=O)[C@H](CCCCNC(=O)CC[C@H](NC(=O)CCCCCCCCCCCCCCCCC(=O)O)C(=O)O)NC(=O)CNC(=O)[C@H](CC(=O)O)NC(=O)[C@H](CC(C)C)NC(=O)[C@@H](NC(=O)[C@@H](NC(=O)[C@H](C)NC(=O)[C@H](CC(C)C)NC(=O)[C@H](CCC(=O)O)NC(=O)[C@H](CO)NC(=O)[C@H](CO)NC(=O)[C@H](Cc1ccccc1)NC(=O)[C@@H](NC(=O)CNC(=O)[C@H](CCC(=O)O)NC(=O)C(C)(C)NC(=O)[C@@H](N)Cc1c[nH]cn1)[C@@H](C)O)[C@@H](C)O)[C@@H](C)CC)C(=O)N[C@@H](C)C(=O)N[C@@H](Cc1c[nH]c2ccccc12)C(=O)N[C@@H](CC(C)C)C(=O)N[C@H](C(=O)N[C@@H](CCC(=O)O)C(=O)N[C@@H](Cc1c[nH]cn1)C(=O)N[C@@H](CCCCN)C(=O)N[C@H](C(=O)N[C@H](C(=O)N[C@@H](CC(=O)O)C(=O)O)[C@@H](C)O)[C@@H](C)CC)[C@@H](C)CC"}, "B3": {"name": "Compound 68 (peptide)", "peptide": "H-H[Aib]EGSFTSELATILDAKAAK([AEEA-KEK-γGlu-C20 diacid])DFIAWLIEHKITD-OH"}, "B4": {"name": "Compound 62 (peptide)", "peptide": "H-H[Aib]EGSFTSELATILDAK([AEEA-KEK-γGlu-C20 diacid])AARDFIAWLIEHKITD-OH"}, "B5": {"name": "Compound 64 (peptide)", "peptide": "H-H[Aib]EGSFTSELATILDEQAAK([AEEA-KEK-γGlu-C20 diacid])DFIAWLIEHKITD-OH"}, "B6": {"name": "Compound 5 (peptide)", "peptide": "H-H[Aib]EGSFTSELATILDK([γGlu-C18 diacid])KAARDFIAWLIEHKITD-OH", "SMILES": "CC[C@H](C)[C@H](NC(=O)[C@H](Cc1ccccc1)NC(=O)[C@H](CC(=O)O)NC(=O)[C@H](CCCNC(=N)N)NC(=O)[C@H](C)NC(=O)[C@H](C)NC(=O)[C@H](CCCCN)NC(=O)[C@H](CCCCNC(=O)CC[C@H](NC(=O)CCCCCCCCCCCCCCCCC(=O)O)C(=O)O)NC(=O)[C@H](CC(=O)O)NC(=O)[C@H](CC(C)C)NC(=O)[C@@H](NC(=O)[C@@H](NC(=O)[C@H](C)NC(=O)[C@H](CC(C)C)NC(=O)[C@H](CCC(=O)O)NC(=O)[C@H](CO)NC(=O)[C@@H](NC(=O)[C@H](Cc1ccccc1)NC(=O)[C@H](CO)NC(=O)CNC(=O)[C@H](CCC(=O)O)NC(=O)C(C)(C)NC(=O)[C@@H](N)Cc1c[nH]cn1)[C@@H](C)O)[C@@H](C)O)[C@@H](C)CC)C(=O)N[C@@H](C)C(=O)N[C@@H](Cc1c[nH]c2ccccc12)C(=O)N[C@@H](CC(C)C)C(=O)N[C@H](C(=O)N[C@@H](CCC(=O)O)C(=O)N[C@@H](Cc1c[nH]cn1)C(=O)N[C@@H](CCCCN)C(=O)N[C@H](C(=O)N[C@H](C(=O)N[C@@H](CC(=O)O)C(=O)O)[C@@H](C)O)[C@@H](C)CC)[C@@H](C)CC"}, "B7": {"name": "Compound 63 (peptide)", "peptide": "H-H[Aib]EGSFTSELATILDAK([AEEA-AEEA-KEK-γGlu-C20 diacid])AARDFIAWLIEHKITD-OH"}, "B8": {"name": "Compound 8 (peptide)", "peptide": "H-H[Aib]EGSFTSELATILDGK([γGlu-C18 diacid])AARDFIAWLIEHKITD-OH", "SMILES": "CC[C@H](C)[C@H](NC(=O)[C@H](Cc1ccccc1)NC(=O)[C@H](CC(=O)O)NC(=O)[C@H](CCCNC(=N)N)NC(=O)[C@H](C)NC(=O)[C@H](C)NC(=O)[C@H](CCCCNC(=O)CC[C@H](NC(=O)CCCCCCCCCCCCCCCCC(=O)O)C(=O)O)NC(=O)CNC(=O)[C@H](CC(=O)O)NC(=O)[C@H](CC(C)C)NC(=O)[C@@H](NC(=O)[C@@H](NC(=O)[C@H](C)NC(=O)[C@H](CC(C)C)NC(=O)[C@H](CCC(=O)O)NC(=O)[C@H](CO)NC(=O)[C@@H](NC(=O)[C@H](Cc1ccccc1)NC(=O)[C@H](CO)NC(=O)CNC(=O)[C@H](CCC(=O)O)NC(=O)C(C)(C)NC(=O)[C@@H](N)Cc1c[nH]cn1)[C@@H](C)O)[C@@H](C)O)[C@@H](C)CC)C(=O)N[C@@H](C)C(=O)N[C@@H](Cc1c[nH]c2ccccc12)C(=O)N[C@@H](CC(C)C)C(=O)N[C@H](C(=O)N[C@@H](CCC(=O)O)C(=O)N[C@@H](Cc1c[nH]cn1)C(=O)N[C@@H](CCCCN)C(=O)N[C@H](C(=O)N[C@H](C(=O)N[C@@H](CC(=O)O)C(=O)O)[C@@H](C)O)[C@@H](C)CC)[C@@H](C)CC"}, "B9": {"name": "Compound 3 (peptide)", "peptide": "H-H[Aib]EGTFTSELATILDK([γGlu-C18 diacid])EAARDFIAWLIEHKITD-OH", "SMILES": "CC[C@H](C)[C@H](NC(=O)[C@H](Cc1ccccc1)NC(=O)[C@H](CC(=O)O)NC(=O)[C@H](CCCNC(=N)N)NC(=O)[C@H](C)NC(=O)[C@H](C)NC(=O)[C@H](CCC(=O)O)NC(=O)[C@H](CCCCNC(=O)CC[C@H](NC(=O)CCCCCCCCCCCCCCCCC(=O)O)C(=O)O)NC(=O)[C@H](CC(=O)O)NC(=O)[C@H](CC(C)C)NC(=O)[C@@H](NC(=O)[C@@H](NC(=O)[C@H](C)NC(=O)[C@H](CC(C)C)NC(=O)[C@H](CCC(=O)O)NC(=O)[C@H](CO)NC(=O)[C@@H](NC(=O)[C@H](Cc1ccccc1)NC(=O)[C@@H](NC(=O)CNC(=O)[C@H](CCC(=O)O)NC(=O)C(C)(C)NC(=O)[C@@H](N)Cc1c[nH]cn1)[C@@H](C)O)[C@@H](C)O)[C@@H](C)O)[C@@H](C)CC)C(=O)N[C@@H](C)C(=O)N[C@@H](Cc1c[nH]c2ccccc12)C(=O)N[C@@H](CC(C)C)C(=O)N[C@H](C(=O)N[C@@H](CCC(=O)O)C(=O)N[C@@H](Cc1c[nH]cn1)C(=O)N[C@@H](CCCCN)C(=O)N[C@H](C(=O)N[C@H](C(=O)N[C@@H](CC(=O)O)C(=O)O)[C@@H](C)O)[C@@H](C)CC)[C@@H](C)CC"}, "B10": {"name": "Compound 66 (peptide)", "peptide": "H-H[Aib]EGSFTSELATILDEQAAK([AEEA-AEEA-KEK-γGlu-C20 diacid])DFIAWLIEHKITD-OH"}, "B11": {"name": "Compound 67 (peptide)", "peptide": "H-H[Aib]EGTFTSELATILDEQAAK([AEEA-AEEA-KEK-γGlu-C20 diacid])DFIAWLIEHKITD-OH"}, "B12": {"name": "Compound 6 (peptide)", "peptide": "H-H[Aib]EGTFTSELATILDK([γGlu-C18 diacid])KAARDFIAWLIEHKITD-OH"}, "B13": {"name": "Compound 65 (peptide)", "peptide": "H-H[Aib]EGTFTSELATILDEQAAK([AEEA-KEK-γGlu-C20 diacid])DFIAWLIEHKITD-OH"}}, "note": "Numbered stars: 1 amine (or outer) side, 2 acyl side, 3 side chain; on linkers, the order of the positions; unused ones are H or OH. Square brackets hold non-standard residues; d marks the D form. Side chains are listed from the residue outwards. * marks the point of attachment. C20 diacid = O=C(O)CCCCCCCCCCCCCCCCCCC(=O)*; C18 diacid = O=C(O)CCCCCCCCCCCCCCCCC(=O)*; γGlu = O=C(O)[C@H](CCC(=O)[*:2])N[*:1]; AEEA = NCCOCCOCC(=O)O; Aib = CC(C)(N)C(=O)O", "data": [{"biological_target": "T1, human GLP-2 receptor (hGLP2-R) (human, UniProt O95838)", "T1 sequence": "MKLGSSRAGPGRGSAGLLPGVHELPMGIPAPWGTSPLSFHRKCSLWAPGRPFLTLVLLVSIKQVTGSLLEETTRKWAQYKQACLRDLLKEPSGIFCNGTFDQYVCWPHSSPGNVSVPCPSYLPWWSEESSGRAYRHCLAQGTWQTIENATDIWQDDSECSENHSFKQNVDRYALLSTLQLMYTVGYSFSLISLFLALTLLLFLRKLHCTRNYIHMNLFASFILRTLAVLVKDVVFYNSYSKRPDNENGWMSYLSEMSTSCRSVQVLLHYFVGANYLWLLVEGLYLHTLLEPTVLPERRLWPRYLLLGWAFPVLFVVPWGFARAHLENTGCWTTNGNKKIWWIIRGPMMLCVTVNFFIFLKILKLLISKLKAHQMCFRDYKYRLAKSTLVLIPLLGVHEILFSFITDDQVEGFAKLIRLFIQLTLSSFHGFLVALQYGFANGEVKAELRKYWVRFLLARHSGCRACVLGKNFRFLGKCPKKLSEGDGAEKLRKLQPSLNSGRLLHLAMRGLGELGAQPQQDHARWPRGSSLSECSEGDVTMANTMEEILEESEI", "assay": "cell-based or functional assay", "units": {"EC50 GLP-2 (nM), cAMP AlphaScreen": "nM"}, "values": [{"binder": "B1", "EC50 GLP-2 (nM), cAMP AlphaScreen": 0.087}, {"binder": "B2", "EC50 GLP-2 (nM), cAMP AlphaScreen": 0.019}, {"binder": "B3", "EC50 GLP-2 (nM), cAMP AlphaScreen": 0.1}, {"binder": "B4", "EC50 GLP-2 (nM), cAMP AlphaScreen": 0.15}, {"binder": "B5", "EC50 GLP-2 (nM), cAMP AlphaScreen": 0.2}, {"binder": "B6", "EC50 GLP-2 (nM), cAMP AlphaScreen": 0.063}, {"binder": "B7", "EC50 GLP-2 (nM), cAMP AlphaScreen": 0.17}, {"binder": "B8", "EC50 GLP-2 (nM), cAMP AlphaScreen": 0.039}, {"binder": "B9", "EC50 GLP-2 (nM), cAMP AlphaScreen": 0.33}, {"binder": "B10", "EC50 GLP-2 (nM), cAMP AlphaScreen": 0.18}, {"binder": "B11", "EC50 GLP-2 (nM), cAMP AlphaScreen": 0.22}, {"binder": "B12", "EC50 GLP-2 (nM), cAMP AlphaScreen": 0.12}, {"binder": "B13", "EC50 GLP-2 (nM), cAMP AlphaScreen": 0.35}]}, {"biological_target": "human glucagon-like peptide 1 receptor (GLP-1R) (human, UniProt P43220)", "assay": "cell-based or functional assay", "units": {"EC50 GLP-1 (nM), cAMP AlphaScreen": "nM"}, "values": [{"binder": "B1", "EC50 GLP-1 (nM), cAMP AlphaScreen": 0.66}, {"binder": "B2", "EC50 GLP-1 (nM), cAMP AlphaScreen": 0.92}, {"binder": "B3", "EC50 GLP-1 (nM), cAMP AlphaScreen": 0.084}, {"binder": "B4", "EC50 GLP-1 (nM), cAMP AlphaScreen": 0.27}, {"binder": "B5", "EC50 GLP-1 (nM), cAMP AlphaScreen": 0.49}, {"binder": "B6", "EC50 GLP-1 (nM), cAMP AlphaScreen": 0.17}, {"binder": "B7", "EC50 GLP-1 (nM), cAMP AlphaScreen": 0.31}, {"binder": "B8", "EC50 GLP-1 (nM), cAMP AlphaScreen": 0.22}, {"binder": "B9", "EC50 GLP-1 (nM), cAMP AlphaScreen": 0.042}, {"binder": "B10", "EC50 GLP-1 (nM), cAMP AlphaScreen": 0.65}, {"binder": "B11", "EC50 GLP-1 (nM), cAMP AlphaScreen": 0.16}, {"binder": "B12", "EC50 GLP-1 (nM), cAMP AlphaScreen": 0.058}, {"binder": "B13", "EC50 GLP-1 (nM), cAMP AlphaScreen": 0.13}]}]}
